Assay results as given in US20200199241A1 (Chugai, published 2020).
Substitutions are numbered along the chain they refer to.

B1: IgG1-F868 (antibody)
heavy: QVQLQESGPGLVKPSETLSLTCAVSGHSISHDHAWSWVRQPPGEGLEWIGFISYSGITNYNPSLQGRVTISRDNSKNTLYLQMNSLRAEDTAVYYCARSLARTTAMDYWGEGTLVTVSSASTKGPSVFPLAPSSKSTSGGTAALGCLVKDYFPEPVTVSWNSGALTSGVHTFPAVLQSSGLYSLSSVVTVPSSSLGTQTYICNVNHKPSNTKVDKKVEPKSCDKTHTCPPCPAPELLAGPDVFLFPPKPKDTLYISRTPEVTCVVVDVSHEDPEVKFNWYVDGVEVHEAKTKPREEQYNSTYRVVSVLQVLHADWLNGKEYKCKVSNKALPAPIEKTISKAKGQPREPQVYTLPPSRDELTKNQVSLTCLVKGFYPSDIAVEWESNGQPENNYKTTPPVLDSDGSFFLYSKLTVDKSRWQQGNVFSCSVMHEALHYHYTQKSLSLSP
light: not shown
notes: EU numbering; copies: 2 + 2
B2: IgG1-F906 (antibody)
heavy: B1 heavy with A238G, D241S, E288N, Q309T, A313Q, N317D, G318L
light: not shown
notes: EU numbering; copies: 2 + 2
B3: IgG1-F897 (antibody)
heavy: B1 heavy with A238G, D241S, E288N, Q309T, A313Q, N317D, N386A, N391A
light: not shown
notes: EU numbering; copies: 2 + 2
B4: IgG1-F904 (antibody)
heavy: B1 heavy with A238G, D241S, E288N, Q309T, A313Q, N317D, G318I
light: not shown
notes: EU numbering; copies: 2 + 2
B5: IgG1-F924 (antibody)
heavy: B1 heavy with L237K, A238G, D241K, E288N, Y438I
light: not shown
notes: EU numbering; copies: 2 + 2
B6: IgG1-F881 (antibody)
heavy: B1 heavy with A238G, D241S, E288N, Q309T, A313Q, Y438K
light: not shown
notes: EU numbering; copies: 2 + 2
B7: IgG1-F871 (antibody)
heavy: B1 heavy with L237R, A238G, D241K, E288N
light: not shown
notes: EU numbering; copies: 2 + 2
B8: IgG1-F909 (antibody)
heavy: B1 heavy with A238G, D241S, E288N, Q309T, A313Q, N317D, G318P
light: not shown
notes: EU numbering; copies: 2 + 2
B9: IgG1-F896 (antibody)
heavy: B1 heavy with L237R, A238G, D241K, N317E
light: not shown
notes: EU numbering; copies: 2 + 2
B10: IgG1-F877 (antibody)
heavy: B1 heavy with A238G, D241S, E288N, Q309T, A313Q, Y438E
light: not shown
notes: EU numbering; copies: 2 + 2
B11: IgG1-F932 (antibody)
heavy: B1 heavy with A238G, D241S, T252V, E288N, Q309T, A313Q
light: not shown
notes: EU numbering; copies: 2 + 2
B12: IgG1-F926 (antibody)
heavy: B1 heavy with L237K, A238G, D241K, S256T, E288N, Q309T, A313Q, Y438I
light: not shown
notes: EU numbering; copies: 2 + 2
B13: IgG1-F910 (antibody)
heavy: B1 heavy with A238G, D241S, E288N, Q309T, A313Q, N317D, G318Q
light: not shown
notes: EU numbering; copies: 2 + 2
B14: IgG1-F901 (antibody)
heavy: B1 heavy with A238G, D241S, E288N, Q309T, A313Q, N317D, G318E
light: not shown
notes: EU numbering; copies: 2 + 2
B15: IgG1-F905 (antibody)
heavy: B1 heavy with A238G, D241S, E288N, Q309T, A313Q, N317D, G318K
light: not shown
notes: EU numbering; copies: 2 + 2
B16: IgG1-F872 (antibody)
heavy: B1 heavy with L237K, A238G, D241K, Q309T, A313Q
light: not shown
notes: EU numbering; copies: 2 + 2
B17: IgG1-F899 (antibody)
heavy: B1 heavy with A238G, D241S, E288N, Q309T, A313Q, N317D, G318A
light: not shown
notes: EU numbering; copies: 2 + 2
B18: IgG1-F915 (antibody)
heavy: B1 heavy with A238G, D241S, E288N, Q309T, A313Q, N317D, G318W
light: not shown
notes: EU numbering; copies: 2 + 2
B19: IgG1-F918 (antibody)
heavy: B1 heavy with A238G, D241S, D282E, E288N, Q309T, A313Q, N386A, N391A
light: not shown
notes: EU numbering; copies: 2 + 2
B20: IgG1-F934 (antibody)
heavy: B1 heavy with A238K, P240D, D241S, T252V, E288N, Q309T, A313Q
light: not shown
notes: EU numbering; copies: 2 + 2
B21: IgG1-F903 (antibody)
heavy: B1 heavy with A238G, D241S, E288N, Q309T, A313Q, N317D, G318H
light: not shown
notes: EU numbering; copies: 2 + 2
B22: IgG1-F931 (antibody)
heavy: B1 heavy with A238G, P240D, D241S, T252V, E288N, Q309T, A313Q, Y438I
light: not shown
notes: EU numbering; copies: 2 + 2
B23: IgG1-F914 (antibody)
heavy: B1 heavy with A238G, D241S, E288N, Q309T, A313Q, N317D, G318V
light: not shown
notes: EU numbering; copies: 2 + 2
B24: IgG1-F923 (antibody)
heavy: B1 heavy with L237R, A238G, D241K, Q309T, A313Q, Y438I
light: not shown
notes: EU numbering; copies: 2 + 2
B25: IgG1-F870 (antibody)
heavy: B1 heavy with L237K, A238G, D241K, E288N
light: not shown
notes: EU numbering; copies: 2 + 2
B26: IgG1-F889 (antibody)
heavy: B1 heavy with A238G, D241S, E288N, Q309T, A313Q, Y438T
light: not shown
notes: EU numbering; copies: 2 + 2
B27: IgG1-F891 (antibody)
heavy: B1 heavy with A238G, D241S, E288N, Q309T, A313Q, Y438W
light: not shown
notes: EU numbering; copies: 2 + 2
B28: IgG1-F900 (antibody)
heavy: B1 heavy with A238G, D241S, E288N, Q309T, A313Q, N317D, G318D
light: not shown
notes: EU numbering; copies: 2 + 2
B29: IgG1-F892 (antibody)
heavy: B1 heavy with A238G, D241S, S256T, E288N, Q309T, A313Q, Y438I
light: not shown
notes: EU numbering; copies: 2 + 2
B30: IgG1-F898 (antibody)
heavy: B1 heavy with A238G, D241S, E288N, Q309T, A313Q, N317E, N386A, N391A
light: not shown
notes: EU numbering; also called E898; copies: 2 + 2
B31: IgG1-F920 (antibody)
heavy: B1 heavy with A238G, D241S, E288S, Q309T, A313Q, N386A, N391A
light: not shown
notes: EU numbering; copies: 2 + 2
B32: IgG1-F907 (antibody)
heavy: B1 heavy with A238G, D241S, E288N, Q309T, A313Q, N317D, G318M
light: not shown
notes: EU numbering; copies: 2 + 2
B33: IgG1-F929 (antibody)
heavy: B1 heavy with A238G, D241S, S256T, E288N, Y438I
light: not shown
notes: EU numbering; copies: 2 + 2
B34: IgG1-F917 (antibody)
heavy: B1 heavy with A238G, D241S, E288S, Q309T, A313Q
light: not shown
notes: EU numbering; copies: 2 + 2
B35: IgG1-F921 (antibody)
heavy: B1 heavy with A238G, D241S, Q309T, A313Q, N386A, N391A
light: not shown
notes: EU numbering; copies: 2 + 2
B36: IgG1-F882 (antibody)
heavy: B1 heavy with A238G, D241S, E288N, Q309T, A313Q, Y438L
light: not shown
notes: EU numbering; copies: 2 + 2
B37: IgG1-F873 (antibody)
heavy: B1 heavy with L237R, A238G, D241K, Q309T, A313Q
light: not shown
notes: EU numbering; copies: 2 + 2
B38: IgG1-F922 (antibody)
heavy: B1 heavy with L237K, A238G, D241K, Q309T, A313Q, Y438I
light: not shown
notes: EU numbering; copies: 2 + 2
B39: IgG1-F894 (antibody)
heavy: B1 heavy with L237R, A238G, D241K, E288N, Q309T, A313Q, Y438I
light: not shown
notes: EU numbering; copies: 2 + 2
B40: IgG1-F875 (antibody)
heavy: B1 heavy with A238G, D241S, E288N, Q309T, A313Q, Y438A
light: not shown
notes: EU numbering; copies: 2 + 2
B41: IgG1-F912 (antibody)
heavy: B1 heavy with A238G, D241S, E288N, Q309T, A313Q, N317D, G318S
light: not shown
notes: EU numbering; copies: 2 + 2
B42: IgG1-F908 (antibody)
heavy: B1 heavy with A238G, D241S, E288N, Q309T, A313Q, N317D, G318N
light: not shown
notes: EU numbering; copies: 2 + 2
B43: IgG1-F911 (antibody)
heavy: B1 heavy with A238G, D241S, E288N, Q309T, A313Q, N317D, G318R
light: not shown
notes: EU numbering; copies: 2 + 2
B44: IgG1-F883 (antibody)
heavy: B1 heavy with A238G, D241S, E288N, Q309T, A313Q, Y438M
light: not shown
notes: EU numbering; copies: 2 + 2
B45: IgG1-F893 (antibody)
heavy: B1 heavy with L237K, A238G, D241K, E288N, Q309T, A313Q, Y438I
light: not shown
notes: EU numbering; copies: 2 + 2
B46: IgG1-F880 (antibody)
heavy: B1 heavy with A238G, D241S, E288N, Q309T, A313Q, Y438H
light: not shown
notes: EU numbering; copies: 2 + 2
B47: IgG1-F879 (antibody)
heavy: B1 heavy with A238G, D241S, E288N, Q309T, A313Q, Y438G
light: not shown
notes: EU numbering; copies: 2 + 2
B48: IgG1-F888 (antibody)
heavy: B1 heavy with A238G, D241S, E288N, Q309T, A313Q, Y438S
light: not shown
notes: EU numbering; copies: 2 + 2
B49: IgG1-F902 (antibody)
heavy: B1 heavy with A238G, D241S, E288N, Q309T, A313Q, N317D, G318F
light: not shown
notes: EU numbering; copies: 2 + 2
B50: IgG1-F913 (antibody)
heavy: B1 heavy with A238G, D241S, E288N, Q309T, A313Q, N317D, G318T
light: not shown
notes: EU numbering; copies: 2 + 2
B51: IgG1-F938 (antibody)
heavy: B1 heavy with L237K, A238G, D241K, E288N, Q309T, A313Q, Y438V
light: not shown
notes: copies: 2 + 2
B52: IgG1-F937 (antibody)
heavy: B1 heavy with A238G, P240D, D241K, T252V, E288N, Q309T, A313Q
light: not shown
notes: EU numbering; copies: 2 + 2
B53: IgG1-F935 (antibody)
heavy: B1 heavy with A238G, G239K, P240D, D241S, T252V, E288N, Q309T, A313Q
light: not shown
notes: EU numbering; copies: 2 + 2
B54: IgG1-F925 (antibody)
heavy: B1 heavy with L237R, A238G, D241K, E288N, Y438I
light: not shown
notes: EU numbering; copies: 2 + 2
B55: IgG1-F895 (antibody)
heavy: B1 heavy with L237K, A238G, D241K, N317E
light: not shown
notes: EU numbering; copies: 2 + 2
B56: IgG1-F930 (antibody)
heavy: B1 heavy with A238G, P240D, D241S, T252V, Q309T, A313Q
light: not shown
notes: EU numbering; copies: 2 + 2
B57: IgG1-F933 (antibody)
heavy: B1 heavy with L236R, A238G, P240D, D241S, T252V, E288N, Q309T, A313Q
light: not shown
notes: EU numbering; copies: 2 + 2
B58: IgG1-F927 (antibody)
heavy: B1 heavy with L237R, A238G, D241K, S256T, E288N, Q309T, A313Q, Y438I
light: not shown
notes: EU numbering; copies: 2 + 2
B59: IgG1-F884 (antibody)
heavy: B1 heavy with A238G, D241S, E288N, Q309T, A313Q, Y438N
light: not shown
notes: EU numbering; copies: 2 + 2
B60: IgG1-F878 (antibody)
heavy: B1 heavy with A238G, D241S, E288N, Q309T, A313Q, Y438F
light: not shown
notes: EU numbering; copies: 2 + 2

target: T1, soluble human FcRn complexed with β2-microglobulin (human, UniProt P61769 21-119, limits assumed); assay: Biacore SPR, pH 7.0;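 note: test antibodies captured on a Protein L chip with human FcRn flowed over as analyte, KD obtained as the ratio of dissociation to association rate constants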
T1 construct: also called hFcRn
T1 sequence (chain, as listed by the source limits assumed, chain 1 of 2): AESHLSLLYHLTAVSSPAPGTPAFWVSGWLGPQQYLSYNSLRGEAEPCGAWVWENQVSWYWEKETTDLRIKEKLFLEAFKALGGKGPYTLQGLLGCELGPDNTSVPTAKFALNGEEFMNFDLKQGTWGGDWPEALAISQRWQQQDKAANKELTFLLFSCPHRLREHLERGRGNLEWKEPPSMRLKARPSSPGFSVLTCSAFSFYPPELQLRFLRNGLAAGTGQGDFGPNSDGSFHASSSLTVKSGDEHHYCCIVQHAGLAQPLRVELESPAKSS
T1 sequence (P61769 21-119 limits assumed, chain 2 of 2): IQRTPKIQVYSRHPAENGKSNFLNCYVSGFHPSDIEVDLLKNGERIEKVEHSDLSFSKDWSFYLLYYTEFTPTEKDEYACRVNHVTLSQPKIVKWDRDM

Binder | Kd [nM]
B1 | 20
B2 | 150
B3 | 97
B4 | 100
B5 | 34
B6 | 310
B7 | 71
B8 | 130
B9 | 20
B10 | 830
B11 | 320
B12 | 110
B13 | 140
B14 | 130
B15 | 130
B16 | 130
B17 | 110
B18 | 230
B19 | 280
B20 | 310

Binder | Kd [nM]
B21 | 230
B22 | 120
B23 | 150
B24 | 60
B25 | 73
B26 | 220
B27 | 170
B28 | 170
B29 | 71
B30 | 170
B31 | 250
B32 | 130
B33 | 29
B34 | 250
B35 | 120
B36 | 130
B37 | 120
B38 | 59
B39 | 92
B40 | 480

Binder | Kd [nM]
B41 | 120
B42 | 150
B43 | 130
B44 | 210
B45 | 98
B46 | 390
B47 | 920
B48 | 480
B49 | 220
B50 | 110
B51 | 160
B52 | 310
B53 | 320
B54 | 32
B55 | 21
B56 | 140
B57 | 300
B58 | 100
B59 | 400
B60 | 190
